Article PMC7948415

Assays:
properdin (human) = properdin (human) (UniProt P27918); assay: SPR; Biacore T100; properdin amine-coupled to a CM5 chip (5000 RU); C3b (20 μg/ml), factor B (20 μg/ml) and factor D (2 μg/ml) in HBS/MgCl2 injected at 30 μl/min for 120 s without or with SG7.AF, albicin or anophensin (Fig. 9C: 56.8 nM C3b, 107.5 nM factor B, 41.7 nM factor D, inhibitors 1 μM); dissociation at 1 μM inhibitor fitted to a double exponential decay
[1] = target: variant of anophensin with the N-terminus extended by the retention of three amino acids from the signal peptide (Anopheles stephensi) (UniProt A5HUP6); assay: crystal structure; lengthened anophensin, space group P2_(1)2_(1)2, three monomers in the asymmetric unit, SAD with a selenomethionine derivative

Sequence of properdin (human) (P27918 28-469): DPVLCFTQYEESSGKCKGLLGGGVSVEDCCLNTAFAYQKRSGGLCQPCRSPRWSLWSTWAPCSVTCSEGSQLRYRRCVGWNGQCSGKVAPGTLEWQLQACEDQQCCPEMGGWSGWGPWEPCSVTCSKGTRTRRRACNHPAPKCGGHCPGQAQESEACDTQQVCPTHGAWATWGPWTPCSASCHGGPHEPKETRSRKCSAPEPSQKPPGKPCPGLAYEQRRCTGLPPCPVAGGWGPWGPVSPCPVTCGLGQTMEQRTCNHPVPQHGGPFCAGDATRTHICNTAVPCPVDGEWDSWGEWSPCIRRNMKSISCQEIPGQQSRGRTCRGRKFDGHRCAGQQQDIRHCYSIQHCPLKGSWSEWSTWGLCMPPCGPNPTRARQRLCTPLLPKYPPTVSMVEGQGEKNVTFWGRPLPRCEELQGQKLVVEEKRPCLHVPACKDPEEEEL

| Substance | koff, fast phase of a double exponential decay (properdin (human)) [s⁻¹] | koff, slow phase of a double exponential decay (properdin (human)) [s⁻¹] | stoichiometry N [1] |
| --- | --- | --- | --- |
| SG7.AF-bound C3bBb complex (from UniProt P01024 749-1663; P01024 749-1663; P00751 260-764; C0HMB5 1-119) | 0.02 | 0.003 |  |
| albicin-bound C3bBb complex (from UniProt P01024 749-1663; P01024 749-1663; P00751 260-764; A0A1Y9G8D0 27-142) | 0.02 | 0.003 |  |
| variant of anophensin with the N-terminus extended by the retention of three amino acids from the signal peptide (from UniProt A5HUP6 28-142) (natural protein) |  |  | 2 |
